Source: US5157106A, “N-terminal deletions of lymphotoxin, their preparation and use” (BASF Aktiengesellschaft, priority 1986, dated 1992)

B1: interferon-gamma: human recombinant interferon-gamma (protein, UniProt P01579 24-161, looked up)
Interferon gamma: QDPYVKEAENLKKYFNAGHSDVADNGTLFLGILKNWKEESDRKIMQSQIVSFYFKLFKNFKDDQSIQKSVETIKEDMNVKFFNSNKKKRDDFEKLTNYSVTDLNVQRKAIHELIQVMAELSPAAKTGKRKRSQMLFRG
B2: LT: lymphotoxin comparison substance, cloned and expressed in E. coli; product was a mixture of lymphotoxin derivatives (protein, UniProt P01374 35-205, looked up)
Lymphotoxin-alpha: LPGVGLTPSAAQTARQHPKMHLAHSTLKPAAHLIGDPSKQNSLLWRANTDRAFLQDGFSLSNNSLLVPTSGIYFVYSQVVFSGKAYSPKATSSPLYLAHEVQLFSSQYPFHVPLLSSQKMVYPGLQEPWLHSMYHGAAFQLTQGDQLSTHTDGIPHLVLSPSTVFFGAFAL

Legend:
[1] = tested on: MG-63 tumor cells; test: Synergistic cytotoxic activity with recombinant interferon-gamma on tumor cells (72 h, crystal violet); details: for sensitivity / growth inhibition of MG-63 by the single substance: substance alone; for factor by which the cytotoxic effect induced by interferon-gamma alone is enhanced: 2 ng/ml interferon-gamma with 2 ng/ml lymphotoxin; for enhancement of the cytotoxicity induced by interferon-gamma (synergistic effect): mean of two independent experiments
Procedure: 2×10^3 cells in the exponential phase of growth were plated out in complete culture medium (RPMI 1640+10% FCS, both from Flow Laboratories, Meckenheim) in each well of a 96-well plate and were incubated overnight at 37° C. and 5% CO2 in an atmosphere saturated with water vapor. Then, maintaining the interferon-gamma (human recombinant) concentrations constant, the lymphotoxin or the lymphotoxin mutants were subjected to serial 5-fold dilution starting from a concentration of 10 ng/ml protein. The final volume was 150 μl in all the culture wells. Pure culture medium or cultivated cells without the addition of IFN-gamma and/or LT or LT mutants were used as controls. The culture plates were incubated for a further 72 h under the conditions indicated above and were then stained using the crystal violet stain as described under
The synergistic action of lymphotoxins with interferon-gamma was determined as follows:
a) the antiproliferative activity of interferon-gamma was determined from the optical densities of the samples by the following formula: [formula]
b) Determination of the cytotoxic activity of the combination of interferon-gamma and lymphotoxin using formula A.
c) Determination of the synergistic effect of lymphotoxins with interferon-gamma: [formula]
The figures given in the Table were determined as explained above under 12a to 12c and represent the means of two independent experiments.

[2] = tested on: L929; test: In vitro cytotoxic activity towards L929 (crystal violet stain, 48 h); assay type: cell-based; details: L929, 48 h; corrected by comparison with the control TNF standard
Procedure: 11. IN VITRO CYTOTOXIC ACTIVITY OF HUMAN RECOMBINANT LYMPHOTOXIN (LT) AND DELTA 23, DELTA 24 AND DELTA 25 LT MUTANTS TOWARDS THE TNF- AND LYMPHOTOXIN-SENSITIVE CELL LINES L929 AND WEHI-164
The substance was added the next day in 25 μl of complete culture medium per well. The initial concentration was 10 ng of protein per ml in each case; 2 duplicate titrations were carried out in series. The following controls were also set up on each culture plate: a) only culture medium; b) cells with culture medium but without lymphotoxin; c) a titrated TNF standard of known biological activity. After incubation for a further 48 h under the conditions indicated above, the surviving cells were stained with a solution of crystal violet (15 g of crystal violet, 7 g of NaCl, 646 ml of ethanol, 172.8 ml of 37% formaldehyde made up to 2 1 with H2 O. This entailed the culture medium being drained off and then the cells being stained with 50 μl of the solution at room temperature for 20 min. The culture plates were then washed with water until all the dyestuff which was not cell-bound had been removed. The cell-bound dyestuff was determined by photometry, after addition of 100 μl of measurement solution (50% ethanol, 0.1% acetic acid), at 540 nm using a Titertek Multiscan MCC/340 (Flow Laboratories, Meckenheim). […]

[3] = tested on: Balb/c mice; test: Determination of acute toxicity, intravenous; assay type: in vivo
Procedure: Male Balb/c mice from 4 to 6 weeks of age were used to determine the acute toxicity of the substances under investigation. The animals were randomized (5 animals in each group) and, following a one-week acclimatization period, they received various doses of the test substance (0.25-4.0 mg/kg body weight intravenously, injected into one of the lateral caudal veins). The volume administered was 10 ml/kg body weight; the injection was administered over a period of 10 seconds. The substances had been dissolved in physiological saline solution which contained 0.2% BSA (bovine serum albumin) immediately before the intravenous injection. Animals which received intravenous administration of 10 ml of physiological saline solution per kg of body weight, with 0.2% BSA, acted as controls. […] The following signs were noted: diarrhea, diminished locomotion, piloerection, cyanosis and death; in addition, the body temperature and weight of the animals were determined at regular intervals.

[4] = tested on: primary cell cultures and normal cell lines; details: cited from earlier work
[5] = in vivo studies; cited from earlier work

Molecule | sensitivity / growth inhibition of MG-63 by the single substance [1] | Activity (one unit = amount which induces 50% lysis of the given number of cells) [2] | factor by which the cytotoxic effect induced by interferon-gamma alone is enhanced ([1]; first measurement) | factor by which the cytotoxic effect induced by interferon-gamma alone is enhanced ([1]; second measurement) | enhancement of the cytotoxicity induced by interferon-gamma (synergistic effect) ([1]; IFN-gamma 0.4 ng/ml, lymphotoxin 0.016 ng/ml) | enhancement of the cytotoxicity induced by interferon-gamma (synergistic effect) ([1]; IFN-gamma 0.4 ng/ml, lymphotoxin 0.08 ng/ml) | enhancement of the cytotoxicity induced by interferon-gamma (synergistic effect) ([1]; IFN-gamma 0.4 ng/ml, lymphotoxin 0.4 ng/ml) | enhancement of the cytotoxicity induced by interferon-gamma (synergistic effect) ([1]; IFN-gamma 0.4 ng/ml, lymphotoxin 2 ng/ml) | enhancement of the cytotoxicity induced by interferon-gamma (synergistic effect) ([1]; IFN-gamma 0.4 ng/ml, lymphotoxin 10 ng/ml) | enhancement of the cytotoxicity induced by interferon-gamma (synergistic effect) ([1]; IFN-gamma 2.0 ng/ml, lymphotoxin 0.016 ng/ml) | enhancement of the cytotoxicity induced by interferon-gamma (synergistic effect) ([1]; IFN-gamma 2.0 ng/ml, lymphotoxin 0.08 ng/ml) | enhancement of the cytotoxicity induced by interferon-gamma (synergistic effect) ([1]; IFN-gamma 2.0 ng/ml, lymphotoxin 0.4 ng/ml) | enhancement of the cytotoxicity induced by interferon-gamma (synergistic effect) ([1]; IFN-gamma 2.0 ng/ml, lymphotoxin 2 ng/ml) | enhancement of the cytotoxicity induced by interferon-gamma (synergistic effect) ([1]; IFN-gamma 2.0 ng/ml, lymphotoxin 10 ng/ml) | time at which signs were detectable (as early as) ([3]; after the injection, especially at higher doses) [h] | severity of observed signs compared between substances ([3]; intravenous) | signs observed after injection ([3]; intravenous, 0.25-4.0 mg/kg) | reversibility of signs ([3]; surviving animals, within the 7-day observation period) | cytotoxic activity [4] | antitumor effect [5]
B1 | growth is inhibited dosedependently | – | – | – | – | – | – | – | – | – | – | – | – | – | – | – | – | – | – | –
B2 | not sensitive to lymphotoxin alone | 6.1 × 10^7 U/mg protein | 1.57 | 1.41 | 1.42 | 1.87 | 1.75 | 1.89 | 2.16 | 1.15 | 1.27 | 1.40 | 1.49 | 1.61 | 2 | most pronounced | dose- and time-dependent reduction in body temperature and weight and in locomotion, and induced piloerection and diarrhea | completely reversible in the surviving animals | less or nonexistent | effective antitumor agent
